Measured values as given in IntAct's records for PubMed 11313760.

B1: Prelamin-A/C (Homo sapiens), P02545-1 (parent)
chain: METPSQRRATRSGAQASSTPLSPTRITRLQEKEDLQELNDRLAVYIDRVRSLETENAGLRLRITESEEVVSREVSGIKAAYEAELGDARKTLDSVAKERARLQLELSKVREEFKELKARNTKKEGDLIAAQARLKDLEALLNSKEAALSTALSEKRTLEGELHDLRGQVAKLEAALGEAKKQLQDEMLRRVDAENRLQTMKEELDFQKNIYSEELRETKRRHETRLVEIDNGKQREFESRLADALQELRAQHEDQVEQYKKELEKTYSAKLDNARQSAERNSNLVGAAHEELQQSRIRIDSLSAQLSQLQKQLAAKEAKLRDLEDSLARERDTSRRLLAEKEREMAEMRARMQQQLDEYQELLDIKLALDMEIHAYRKLLEGEEERLRLSPSPTSQRSRGRASSHSSQTQGGGSVTKKRKLESTESRSSFSQHARTSGRVAVEEVDEEGKFVRLRNKSNEDQSMGNWQIKRQNGDDPLLTYRFPPKFTLKAGQVVTIWAAGAGATHSPPTDLVWKAQNTWGCGNSLRTALINSTGEEVAMRKLVRSVTVVEDDEDEDGDDLLHHHHGSHCSSSGDPAEYNLRSRTVLCGTCGQPADKASASGSGAQVGGPISSGSSASSVTVTRSYRSVGGSGGGSFGDNLVTRSYLLGNSSPRTQSPQNCSIM
partner: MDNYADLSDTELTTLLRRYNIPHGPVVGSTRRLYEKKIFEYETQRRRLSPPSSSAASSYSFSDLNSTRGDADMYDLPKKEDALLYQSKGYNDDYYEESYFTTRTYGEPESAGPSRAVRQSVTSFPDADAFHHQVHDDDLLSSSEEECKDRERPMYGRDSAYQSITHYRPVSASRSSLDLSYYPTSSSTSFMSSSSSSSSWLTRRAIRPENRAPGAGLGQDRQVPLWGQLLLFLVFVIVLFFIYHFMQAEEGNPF

Variants of: B1
Details: with emd_human EMD

Variant	effect of a mutation on the interaction
R482Q	with no effect
